How the values were obtained:
CD302 = target: T1, CD302 (human, UniProt Q8IX05 23-168, limits assumed); assay: ELISA, plate-coated recombinant human protein, nanobody-Fc
T1 construct: Recombinant human protein in ELISA
T1 sequence (looked up): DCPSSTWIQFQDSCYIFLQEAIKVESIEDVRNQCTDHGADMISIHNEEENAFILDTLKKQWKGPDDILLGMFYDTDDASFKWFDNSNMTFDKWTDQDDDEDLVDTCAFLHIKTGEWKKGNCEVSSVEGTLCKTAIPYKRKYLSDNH
Method: (§1) Recombinant human protein was diluted in PBS to a final concentration of 5 μg/mL and was immobilized on 96-well flat bottom MaxiSorp plates (Thermo Fisher Scientific) and placed at 4° C. overnight. Plates were washed three times with 225 μL ELISA wash buffer (PBS with 0.05% Tween 20) and 200 μL ELISA blocking buffer (PBS with 1% Casein) was added to the well. Plates were incubated with shaking for 2 hours at room temperature. ELISA blocking buffer was removed from the wells and appropriate dilutions of recombinant nanobodies in 100 μL ELISA blocking buffer was added to each well. Plates were incubated with shaking for 2 hours at room temperature. Plates were washed 3 times with 225 μL ELISA wash buffer and 1:5000 goat anti-human IgG HRP (Millipore Sigma) in 100 μL ELISA blocking buffer was added to the wells. Plates were incubated with shaking for 1 hour at room temperature. Plates were washed 6 times with 225 μL ELISA wash buffer. 50 μL TMB substrate (BD Biosciences) was added to the wells and plates were incubated for 15 minutes in the dark at room temperature. 50 μL 1 M sulfuric acid was added to the wells and absorbance at 450 nm was measured in a Synergy HTX Multi-Mode Microplate Reader (BioTek).

[1] = target: T2, TNFSF18 (recombinant human protein) (human, UniProt Q9UNG2 52-177, limits assumed); assay: ELISA, recombinant human protein coated, nanobody-Fc titrated, anti-human IgG HRP
T2 construct: Recombinant human protein immobilized at 5 ug/mL for ELISA
T2 sequence (looked up): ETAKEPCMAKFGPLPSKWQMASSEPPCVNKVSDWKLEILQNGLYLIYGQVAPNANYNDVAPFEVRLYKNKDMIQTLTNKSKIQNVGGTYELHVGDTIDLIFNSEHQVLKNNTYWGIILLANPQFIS
Method: as §1

REAP Off-Targets = assay: REAP, nanobody-Fc on yeast-displayed human antigen library
[2] = target: T3, TNFRSF17 (recombinant human protein) (human, UniProt Q02223 1-54); assay: ELISA, recombinant human protein coated, nanobody-Fc titrated, anti-human IgG HRP
T3 construct: Recombinant human protein immobilized at 5 ug/mL for ELISA
T3 sequence (looked up): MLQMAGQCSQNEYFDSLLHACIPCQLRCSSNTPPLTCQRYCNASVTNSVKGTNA
Method: as §1

PROCR = target: T4, PROCR (human, UniProt Q9UNN8 18-210); assay: ELISA, plate-coated recombinant human protein, nanobody-Fc
T4 construct: Recombinant human protein in ELISA and BLI
T4 sequence (looked up): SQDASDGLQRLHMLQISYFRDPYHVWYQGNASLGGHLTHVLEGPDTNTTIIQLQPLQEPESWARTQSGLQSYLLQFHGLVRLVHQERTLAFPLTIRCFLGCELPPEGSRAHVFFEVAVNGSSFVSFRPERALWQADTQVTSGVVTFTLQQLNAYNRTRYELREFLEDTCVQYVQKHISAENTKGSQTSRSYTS
Method: as §1

CD3E = target: T5, CD3E (human, UniProt P07766 23-126); assay: as above
T5 construct: Recombinant human protein in ELISA
Method: as §1

T5 sequence (P07766 23-126 limits assumed): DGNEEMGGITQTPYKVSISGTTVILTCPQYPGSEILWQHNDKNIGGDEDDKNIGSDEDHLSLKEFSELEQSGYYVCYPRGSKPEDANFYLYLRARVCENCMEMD

B1: CD302_Nb32 (Fc fusion)
chain: QVQLQESGGGLVQAGGSLRLSCAASGTIFPDSSMGWYRQAPGKEREFVAGITTGANTYYADSVKGRFTISRDNAKNTVYLQMNSLKPEDTAVYYCAAYHVDRAVFRYWGQGTQVTVSS
notes: Nanobody expressed and tested as Fc fusion (human IgG1); not shown: human IgG1 Fc (vector pCER243)
B1 showed an EC50 (CD302) of 0.49 nM.

B2: CD302_Nb33 (Fc fusion)
chain: QVQLQESGGGLVQAGGSLRLSCAASGTISIIFAMGWYRQAPGKEREFVAGIGRGTTTYYADSVKGRFTISRDNAKNTVYLQMNSLKPEDTAVYYCAAHVFYDNVVQRHAYWGQGTQVTVSS
notes: as for B1
B2 showed an EC50 (CD302) of 2.26 nM.

B3: TNFSF18_Nb101 (Fc fusion)
chain: QVQLQESGGGLVQAGGSLRLSCAASGYIFDDYGMGWYRQAPGKERELVATINAGANTNYADSVKGRFTISRDNAKNTVYLQMNSLKPEDTAVYYCAVYYGPYYRYLDPYLYWGQGTQVTVSS
notes: Nanobody expressed as an Fc fusion protein (fused with human IgG1) in Expi293 cells; not shown: human IgG1 Fc; nanobodies expressed as Fc fusion from vector pCER243
For B3, the EC50 [1] was 22.6 nM.

B4: TNFRSF17_Nb2.23 (Fc fusion)
chain: QVQLQESGGGLVQAGGSLRLSCAASGYISRYDYMGWYRQAPGKERELVAAINSGASTYYADSVKGRFTISRDNAKNTVYLQMNSLKPEDTAVYYCAVRSWGLDDYAYWGQGTQVTVSS
notes: as for B3
For B4, the REAP Off-Targets (number) (REAP Off-Targets) was 2 off-targets and the EC50 [2] was 7.57 nM.

B5: CD302_Nb31 (Fc fusion)
chain: QVQLQESGGGLVQAGGSLRLSCAASGTIFKSAGMGWYRQAPGKEREFVAGIAPGAITYYADSVKGRFTISRDNAKNTVYLQMNSLKPEDTAVYYCAALVADGRPYRYWGQGTQVTVSS
notes: as for B1
With B5 the EC50 (CD302) was 1.26 nM.

B6: TNFRSF17_Nb2.18 (Fc fusion)
chain: QVQLQESGGGLVQAGGSLRLSCAASGNIFRGWYMGWYRQAPGKEREFVATIASGGSTYYADSVKGRFTISRDNAKNTVYLQMNSLKPEDTAVYYCAVWDWEPGDYAYWGQGTQVTVSS
notes: as for B3
Work on B6 yielded an REAP Off-Targets (number) (REAP Off-Targets) of 1 off-targets and an EC50 [2] of 2.82 nM.

B7: CD302_Nb28 (Fc fusion)
chain: QVQLQESGGGLVQAGGSLRLSCAASGSISGVSGMGWYRQAPGKEREFVAGITTGTSTYYADSVKGRFTISRDNAKNTVYLQMNSLKPEDTAVYYCAAYANYVPSSRLYLRYWGQGTQVTVSS
notes: as for B1
With B7 the EC50 (CD302) was 0.684 nM.

B8: PROCR_Nb90 (Fc fusion)
chain: QVQLQESGGGLVQAGGSLRLSCAASGTISGGYNMGWYRQAPGKEREFVATIGDGSSTYYADSVKGRFTISRDNAKNTVYLQMNSLKPEDTAVYYCAAFNSAQYWYESPFRYWGQGTQVTVSS
notes: as for B1
Binder B8 has an EC50 (PROCR) of 1.74 nM.

B9: CD302_Nb26 (Fc fusion)
chain: QVQLQESGGGLVQAGGSLRLSCAASGNISFIGAMGWYRQAPGKEREFVAGINVGTNTYYADSVKGRFTISRDNAKNTVYLQMNSLKPEDTAVYYCAAYVFVSRIDLRYLVYWGQGTQVTVSS
notes: as for B1
B9 gave an EC50 (CD302) of 8.5 nM.

B10: CD3E_Nb2.79 (Fc fusion)
chain: QVQLQESGGGLVQAGGSLRLSCAASGTISPWRVMGWYRQAPGKEREFVAGITPGTTTYYADSVKGRFTISRDNAKNTVYLQMNSLKPEDTAVYYCAVSAGASTPARYRLVYWGQGTQVTVSS
notes: as for B1
B10 showed an EC50 (CD3E) of 0.579 nM.

B11: CD302_Nb35 (Fc fusion)
chain: QVQLQESGGGLVQAGGSLRLSCAASGTISRVFVMGWYRQAPGKERELVAGIGGGTSTYYADSVKGRFTISRDNAKNTVYLQMNSLKPEDTAVYYCAAILSDRVLFRYWGQGTQVTVSS
notes: as for B1
B11 showed an EC50 (CD302) of 0.654 nM.

B12: PROCR_Nb85 (Fc fusion)
chain: QVQLQESGGGLVQAGGSLRLSCAASGNISVLVYMGWYRQAPGKERELVAAITTGTSTYYADSVKGRFTISRDNAKNTVYLQMNSLKPEDTAVYYCAADYYGPWYHQYWGQGTQVTVSS
notes: as for B1
B12 was tested, and the EC50 (PROCR) was 0.352 nM.

B13: TNFSF18_Nb96 (Fc fusion)
chain: QVQLQESGGGLVQAGGSLRLSCAASGNISWVYWMGWYRQAPGKERELVAGIATGGSTNYADSVKGRFTISRDNAKNTVYLQMNSLKPEDTAVYYCAVVASNGSRFWYWGQGTQVTVSS
notes: as for B3
B13 showed an REAP Off-Targets (number) (REAP Off-Targets) of 6 off-targets and an EC50 [1] of 4.07 nM.

B14: PROCR_Nb83 (Fc fusion)
chain: QVQLQESGGGLVQAGGSLRLSCAASGNISPTRFMGWYRQAPGKEREFVAAIDLGTTTNYADSVKGRFTISRDNAKNTVYLQMNSLKPEDTAVYYCAADWNGPWSFWYWGQGTQVTVSS
notes: as for B1
B14 was tested, and the EC50 (PROCR) was 1.27 nM.

B15: CD3E_Nb2.77 (Fc fusion)
chain: QVQLQESGGGLVQAGGSLRLSCAASGSISPVAVMGWYRQAPGKEREFVAAINYGANTYYADSVKGRFTISRDNAKNTVYLQMNSLKPEDTAVYYCAAATYAPYQRSGKLVYWGQGTQVTVSS
notes: as for B1
B15 was tested, and the EC50 (CD3E) was 0.67 nM.

B16: TNFRSF17_Nb2.21 (Fc fusion)
chain: QVQLQESGGGLVQAGGSLRLSCAASGTIFQYDYMGWYRQAPGKEREFVAAIAYGGNTNYADSVKGRFTISRDNAKNTVYLQMNSLKPEDTAVYYCAAWSWRRSRAYWGQGTQVTVSS
notes: as for B3
With B16 the REAP Off-Targets (number) (REAP Off-Targets) was 5 off-targets and the EC50 [2] was 4.75 nM.

B17: TNFRSF17_Nb2.19 (Fc fusion)
chain: QVQLQESGGGLVQAGGSLRLSCAASGTISHPTYMGWYRQAPGKEREFVAGISDGTNTYYADSVKGRFTISRDNAKNTVYLQMNSLKPEDTAVYYCAAITSWDYGYGYWGQGTQVTVSS
notes: as for B3
For B17, the REAP Off-Targets (number) (REAP Off-Targets) was 3 off-targets and the EC50 [2] was 2.84 nM.

B18: CD302_Nb30 (Fc fusion)
chain: QVQLQESGGGLVQAGGSLRLSCAASGSISLATGMGWYRQAPGKEREFVAGISVGTSTYYADSVKGRFTISRDNAKNTVYLQMNSLKPEDTAVYYCAAIAWHPSGARSYLRYWGQGTQVTVSS
notes: as for B1
Binder B18 has an EC50 (CD302) of 2.21 nM.

B19: PROCR_Nb89 (Fc fusion)
chain: QVQLQESGGGLVQAGGSLRLSCAASGTIFRDDNMGWYRQAPGKEREFVAAIGYGSTTNYADSVKGRFTISRDNAKNTVYLQMNSLKPEDTAVYYCAVRNTYWNLLQYWGQGTQVTVSS
notes: as for B1
B19 gave an EC50 (PROCR) of 0.565 nM.

B20: CD3E_Nb2.73 (Fc fusion)
chain: QVQLQESGGGLVQAGGSLRLSCAASGNISDITVMGWYRQAPGKEREFVAGINYGGSTNYADSVKGRFTISRDNAKNTVYLQMNSLKPEDTAVYYCAARYRYRYSAREFHDYWGQGTQVTVSS
notes: as for B1
For B20, the EC50 (CD3E) was 0.735 nM.

B21: TNFSF18_Nb93 (Fc fusion)
chain: QVQLQESGGGLVQAGGSLRLSCAASGNISDPPFMGWYRQAPGKERELVAGISWGASTYYADSVKGRFTISRDNAKNTVYLQMNSLKPEDTAVYYCAAVTTDFGAYPFAYWGQGTQVTVSS
notes: as for B3
With B21 the EC50 [1] was 1.59 nM.

B22: CD3E_Nb2.80 (Fc fusion)
chain: QVQLQESGGGLVQAGGSLRLSCAASGNISRRYVMGWYRQAPGKEREFVAGISGGSSTYYADSVKGRFTISRDNAKNTVYLQMNSLKPEDTAVYYCAVLISGNTPNAISHYYWGQGTQVTVSS
notes: as for B1
Work on B22 yielded an EC50 (CD3E) of 17.9 nM.

B23: CD3E_Nb2.74 (Fc fusion)
chain: QVQLQESGGGLVQAGGSLRLSCAASGTIFYASVMGWYRQAPGKEREFVAGITPGGSTNYADSVKGRFTISRDNAKNTVYLQMNSLKPEDTAVYYCAVYYRYSEGRIGGHAYWGQGTQVTVSS
notes: as for B1
For B23, the EC50 (CD3E) was 1.2 nM.

B24: TNFSF18_Nb94 (Fc fusion)
chain: QVQLQESGGGLVQAGGSLRLSCAASGNISLYYDMGWYRQAPGKERELVAAIDPGTITYYADSVKGRFTISRDNAKNTVYLQMNSLKPEDTAVYYCAVVIPDYVYRYVVGTVDYGYWGQGTQVTVSS
notes: as for B3
B24 gave an REAP Off-Targets (number) (REAP Off-Targets) of 1 off-targets and an EC50 [1] of 71.8 nM.

B25: CD3E_Nb2.76 (Fc fusion)
chain: QVQLQESGGGLVQAGGSLRLSCAASGNIFGNVVMGWYRQAPGKEREFVAGINNGGSTNYADSVKGRFTISRDNAKNTVYLQMNSLKPEDTAVYYCAVYYYYLTYHLYWGQGTQVTVSS
notes: as for B1
With B25 the EC50 (CD3E) was 16.1 nM.

B26: TNFRSF17_Nb2.20 (Fc fusion)
chain: QVQLQESGGGLVQAGGSLRLSCAASGTIFSDYMGWYRQAPGKEREFVATIAVGSITYYADSVKGRFTISRDNAKNTVYLQMNSLKPEDTAVYYCAVWDASWADYAYWGQGTQVTVSS
notes: as for B3
Work on B26 yielded an EC50 [2] of 1.02 nM.
